In paper PMC9237128, “Molecular insights into intra-complex signal transmission during stressosome activation” (Communications Biology, 2022):

B1: Listeria innocua RsbR (LiRsbR) (natural protein)
chain: MYKDFANFIRTNKKDLLNNWMNEMEKQSDPLINDIAKEPMYEETSIEFVDLIVSNITENGSKFNEKLDDFAEKVVHLGWPIHFVTTGLRVFGLLVYTAMRDEDLFLKREEKPEDDAYYRFETWLSSMYNKVVTAYADTWEKTVSIQKSALQELSAPLLPIFEKISVMPLIGTIDTERAKLIIENLLIGVVKNRSEVVLIDITGVPVVDTMVAHHIIQASEAVRLVGCQAMLVGIRPEIAQTIVNLGIELDQIITTNTMKKGMERALALTNREIVEKEG
modifications: phosphothreonine at 241 (by ESI-MS-MS and cryo-EM density; seen only in RsbR protomers interacting with RsbS); Thr175 and Thr209 not phosphorylated
notes: RsbR of Listeria innocua, gene CAC96120.1; N-terminal sensory domain, linker helix and C-terminal STAS domain; also called RsbR1; source: E. coli BL21 Star (DE3), co-expressed with LiRsbS from pET11a, co-purified (DEAE, Resource Q, Superose 6 Increase SEC)
B2: Listeria innocua RsbS (LiRsbS) (natural protein)
chain: MGIPILKLGECLLISIQSELDDHTAVEFQEDLLAKIHETSARGVVIDITSIDFIDSFIAKILGDVVSMSKLMGAKVVVTGIQPAVAITLIELGITFSGVLSAMDLESGLEKLKQELGE
notes: RsbS of Listeria innocua, gene CAC96121.1; single STAS domain protein; Ser56 not phosphorylated in the structure; source: E. coli BL21 Star (DE3), co-expressed with LiRsbR from pET11a, co-purified (DEAE, Resource Q, Superose 6 Increase SEC)

Key:
[1] = target: B2; experiment: cryo-EM structure; co-expressed and co-purified LiRsbRS complex (monomeric form after SEC), 0.6 mg/mL; C1 map 4.2 Å, D2 map 3.87 Å, icosahedral map 3.45 Å; model built in the D2 map; conditions: both partners purified
[2] = target: the molecule itself; experiment: as above

Binder | stoichiometry N [1] [LiRsbR per LiRsbS] | binding result [2]
B1 | 2 | binds
B2 |  | binds
